From patent US20230331827A1, “POTASSIUM CHANNEL INHIBITORS” (priority 2017, published 2023)

Target: trypsin
Assay: monoclonal phage ELISA on trypsin

| Binder | ELISA signal |
| --- | --- |
| F03 (EET 5-3 KnotBody) (scFv, V domains shown) VH: EVQLVESGGGLVRPGGSLRLSCAASGFTFSSYAMSWVRQAPGKGLEWVSAISGSGGSTYYADSVKGRFTISRDNTKNSLYLQMTSLRADDTAFYYCVKDFGPGYGTGWFDYWGPGTLVTVSS VL: AVNWYQQLPGRAPKLLIYAAGGCGPNGFCGSGGDGGVCPRILMRCKQDSDCLAGCGAHSGIPERFSGSKSGTSASLAISGLRSEDEADYYCAAWDDSLNGWVFGGGTKVTVLG | 68000 |
| F01 (EET 5-3 KnotBody) (scFv, V domains shown) VH: EVQLVESGGGLVRPGGSLRLSCAASGFTFSSYAMSWVRQAPGKGLEWVSAISGSGGSTYYADSVKGRFTISRDNTKNSLYLQMTSLRADDTAFYYCVKDFGPGYGTGWFDYWGPGTLVTVSS VL: YLNWYQQKPGKAPKLLIDAAGECGPNGFCGSGSDGGVCPRINMRCKQDSDCLAGCGRDSGVPSRFSGSGSGTDFTLTISSLQPEDFATYYCQQSYSTPWTFGQGTKVEIKR | 102000 |
| E03 (EET 5-3 KnotBody) (scFv, V domains shown) VH: EVQLVESGGGLVRPGGSLRLSCAASGFTFSSYAMSWVRQAPGKGLEWVSAISGSGGSTYYADSVKGRFTISRDNTKNSLYLQMTSLRADDTAFYYCVKDFGPGYGTGWFDYWGPGTLVTVSS VL: AVNWYQQLPGKAPKLLIYAAGGCGPNGFCGSGSDGGVCPRILMRCKQDSDCLAGCGRNSGIPERFSGSKSGHTATLTISRVEAGDEADYYCQVWDSSSDHVLFGGGTKLTVLG | 82500 |
| F07 (EET 5-3 KnotBody) (scFv, V domains shown) VH: EVQLVESGGGLVRPGGSLRLSCAASGFTFSSYAMSWVRQAPGKGLEWVSAISGSGGSTYYADSVKGRFTISRDNTKNSLYLQMTSLRADDTAFYYCVKDFGPGYGTGWFDYWGPGTLVTVSS VL: AVNWYQQLPGKAPKLLIYAAGGCGPNGFCGSGSDGGVCPRILMRCKQDSDCLAGCGGQSGVPDRFSGSKSGTSASLAISRLQSEDEADYYCAAWDDSLNAYVFGTGTKVTVLG | 72800 |
| E05 (EET 5-3 KnotBody) (scFv, V domains shown) VH: EVQLVESGGGLVRPGGSLRLSCAASGFTFSSYAMSWVRQAPGKGLEWVSAISGSGGSTYYADSVKGRFTISRDNTKNSLYLQMTSLRADDTAFYYCVKDFGPGYGTGWFDYWGPGTLVTVSS VL: AVNWYQQLPGKAPKLLIYAAGGCGPNGFCGSGSDGGVCPRILMRCKQDSDCLAGCGAQSGIPERFSGSKSGTSASLAISGLQSEDEAHYYCAAWDDSLNGYVFGTGTKVTVLG | 119000 |

Other lines, results leading:

| ELISA signal | Binder |
| --- | --- |
| 121000 | E08 (EET 5-3 KnotBody) (scFv, V domains shown) VH: EVQLVESGGGLVRPGGSLRLSCAASGFTFSSYAMSWVRQAPGKGLEWVSAISGSGGSTYYADSVKGRFTISRDNTKNSLYLQMTSLRADDTAFYYCVKDFGPGYGTGWFDYWGPGTLVTVSS VL: AVNWYQQLPGKAPKLLIYAAGGCGPNGFCGSGSDGGVCPRILMRCKQDSDCLAGCGIQSGIPERFSGSKSGTSASLAISGLRSEDEADYYCAAWDDNLSGYVFGTGTKLTVLG |
| 70300 | E09 (EET 5-3 KnotBody) (scFv, V domains shown) VH: EVQLVESGGGLVRPGGSLRLSCAASGFTFSSYAMSWVRQAPGKGLEWVSAISGSGGSTYYADSVKGRFTISRDNTKNSLYLQMTSLRADDTAFYYCVKDFGPGYGTGWFDYWGPGTLVTVSS VL: AVNWYQQLPGKAPKLLIYAAGGCGPNGFCGSGSDGGVCPRILMRCKQDSDCLAGCGTQSGIPERFSGSKSGTSASLAISGLRSEDEADYYCAAWDDSLRAYVFGTGTQLTVLG |
| 27600 | G11 (EET 5-3 KnotBody) (scFv, V domains shown) VH: EVQLVESGGGLVRPGGSLRLSCAASGFTFSSYAMSWVRQAPGKGLEWVSAISGSGGSTYYADSVKGRFTISRDNTKNSLYLQMTSLRADDTAFYYCVKDFGPGYGTGWFDYWGPGTLVTVSS VL: AVNWYQQLPGKAPKLLIYAAGGCGPNGFCGSGSDGGVCPRILMRCKQDSDCLAGCGQSSGVSDRFSGSKSGTSATLDITGLQTGDEADYYCGTWDNSLSVGVFGGGTKVTVLG |
